Target: T1, 人TIGIT (全长, 表达于CHO工程细胞CHO-hTIGIT) (human, UniProt Q495A1 22-244)
T1 construct: whole, on cells
T1 sequence (looked up): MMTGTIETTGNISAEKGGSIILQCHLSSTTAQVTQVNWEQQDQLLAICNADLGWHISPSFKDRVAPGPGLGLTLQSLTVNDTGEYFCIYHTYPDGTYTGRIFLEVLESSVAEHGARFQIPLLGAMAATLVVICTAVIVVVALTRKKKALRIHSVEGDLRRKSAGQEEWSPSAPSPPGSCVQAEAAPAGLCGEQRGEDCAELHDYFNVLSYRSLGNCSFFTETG
Assay: in vitro binding activity after stress tests (acid, base, freeze-thaw, high temperature)

B1: 抗TIGIT人源化抗体15H10L3 (R0774), hIgG1亚型 (antibody, V domains shown)
VH: QVQLVQSGAEVKKPGSSVKVSCKASGYSFTSYWMNWVRQAPGQGLEWIGMIRPSDSETRLNQMFKDRVTITVDKSTSTAYMELSSLRSEDTAVYYCAGIHDYGHGAYWGQGTLVTVSS
VL: DIQMTQSPSSLSASVGDRVTITCRASENIYSNLAWYQQKPGKSPKLLVYAASHLPDGVPSRFSGSGSGTDYSLTISSLQPEDFATYYCQHFWGTPRTFGQGTKLEIKR
notes: Full-length chains printed for R0774 (hIgG1 with K214R/D356E/L358M, human kappa); Humanized from TIGIT-5 murine mAb; also called 15H10L3-hIgG1
B1: binds.
